Source: patent US20240261333A1, “NOVEL TARGETS FOR ENHANCING ANTI-TUMOR IMMUNITY” (THE BROAD INSTITUTE, INC., priority 2021, published 2024)

Legend:
PSMB4 (human) = PSMB4 (human) (UniProt P28070); test: IgG control IP from lysate of C-FLAG B3GNT2 cells, mass spectrometry
LARP4 (human) = LARP4 (human) (UniProt Q71RC2); test: as above
DNAJA3 (human) = DNAJA3 (human) (UniProt Q96EY1); test: as above
FBXO6 (human) = FBXO6 (human) (UniProt Q9NRD1); test: as above
RPS8 = RPS8 (UniProt P62241); test: co-IP, IgG control, N-FLAG B3GNT2 cell lysate, mass spectrometry
EIF4G1 = EIF4G1 (UniProt Q04637); test: as above
PSMA7 = PSMA7 (UniProt O14818); test: as above
RPS23 = RPS23 (UniProt P62266); test: as above
RPS16 = RPS16 (UniProt P62249); test: as above
CFL1 = CFL1 (UniProt P23528); test: as above
TAGLN = TAGLN (UniProt Q01995); test: as above
TMEM59 = TMEM59 (UniProt Q9BXS4); test: as above
TXN = TXN (UniProt P10599); test: as above
CDSN = CDSN (UniProt Q15517); test: as above
HNRNPU = HNRNPU (UniProt Q00839); test: as above
RPL37A = RPL37A (UniProt P61513); test: as above
DDX20 = DDX20 (UniProt Q9UHI6); test: as above
MTCH2 = MTCH2 (UniProt Q9Y6C9); test: as above
ITGB3 = ITGB3 (UniProt P05106); test: as above
NCCRP1 = NCCRP1 (UniProt Q6ZVX7); test: as above
SRSF1 = SRSF1 (UniProt Q07955); test: as above
POF1B = POF1B (UniProt Q8WVV4); test: as above
ARG1 = ARG1 (UniProt P05089); test: as above
LIMA1 = LIMA1 (UniProt Q9UHB6); test: as above
RPL27A = RPL27A (UniProt P46776); test: as above
SRSF3 = SRSF3 (UniProt P84103); test: as above
HSPB1 = HSPB1 (UniProt P04792); test: as above
RPL22 = RPL22 (UniProt P35268); test: as above
RPL19 = RPL19 (UniProt P84098); test: as above
RPS19 = RPS19 (UniProt P39019); test: as above
RPS2 = RPS2 (UniProt P15880); test: as above
RPL5 = RPL5 (UniProt P46777); test: as above
PBXIP1 = PBXIP1 (UniProt Q96AQ6); test: as above
RPL3 = RPL3 (UniProt P39023); test: as above
TNKS1BP1 = TNKS1BP1 (UniProt Q9C0C2); test: as above
DNAJA2 = DNAJA2 (UniProt O60884); test: as above
RPS13 = RPS13 (UniProt P62277); test: as above
DEFA3 = DEFA3 (UniProt P59666); test: as above
RPL35 = RPL35 (UniProt P42766); test: as above
HIST1H1E = HIST1H1E (UniProt P10412); test: as above
RPS18 = RPS18 (UniProt P62269); test: as above

LIMA1, sequence (Q9UHB6 other isoform, or with tags, fused parts or gaps limits assumed): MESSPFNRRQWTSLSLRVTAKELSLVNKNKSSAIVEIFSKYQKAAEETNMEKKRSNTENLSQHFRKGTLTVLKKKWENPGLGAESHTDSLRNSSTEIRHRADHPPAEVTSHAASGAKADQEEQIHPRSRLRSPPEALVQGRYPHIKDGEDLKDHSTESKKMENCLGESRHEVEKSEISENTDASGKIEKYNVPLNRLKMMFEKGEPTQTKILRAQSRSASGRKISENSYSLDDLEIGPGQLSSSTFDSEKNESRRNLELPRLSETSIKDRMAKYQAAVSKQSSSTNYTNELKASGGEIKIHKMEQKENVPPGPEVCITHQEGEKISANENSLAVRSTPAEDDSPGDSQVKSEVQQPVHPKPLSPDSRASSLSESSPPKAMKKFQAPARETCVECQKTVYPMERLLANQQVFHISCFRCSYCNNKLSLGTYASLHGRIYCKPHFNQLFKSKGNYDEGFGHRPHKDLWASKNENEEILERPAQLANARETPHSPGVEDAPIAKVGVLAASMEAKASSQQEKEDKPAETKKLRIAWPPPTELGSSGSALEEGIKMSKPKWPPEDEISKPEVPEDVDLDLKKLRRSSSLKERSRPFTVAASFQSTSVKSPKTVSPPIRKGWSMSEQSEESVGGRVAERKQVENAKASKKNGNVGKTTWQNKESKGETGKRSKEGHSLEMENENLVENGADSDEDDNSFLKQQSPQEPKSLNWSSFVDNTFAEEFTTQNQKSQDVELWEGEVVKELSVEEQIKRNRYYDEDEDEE
ITGB3, sequence (P05106 27-788 limits assumed): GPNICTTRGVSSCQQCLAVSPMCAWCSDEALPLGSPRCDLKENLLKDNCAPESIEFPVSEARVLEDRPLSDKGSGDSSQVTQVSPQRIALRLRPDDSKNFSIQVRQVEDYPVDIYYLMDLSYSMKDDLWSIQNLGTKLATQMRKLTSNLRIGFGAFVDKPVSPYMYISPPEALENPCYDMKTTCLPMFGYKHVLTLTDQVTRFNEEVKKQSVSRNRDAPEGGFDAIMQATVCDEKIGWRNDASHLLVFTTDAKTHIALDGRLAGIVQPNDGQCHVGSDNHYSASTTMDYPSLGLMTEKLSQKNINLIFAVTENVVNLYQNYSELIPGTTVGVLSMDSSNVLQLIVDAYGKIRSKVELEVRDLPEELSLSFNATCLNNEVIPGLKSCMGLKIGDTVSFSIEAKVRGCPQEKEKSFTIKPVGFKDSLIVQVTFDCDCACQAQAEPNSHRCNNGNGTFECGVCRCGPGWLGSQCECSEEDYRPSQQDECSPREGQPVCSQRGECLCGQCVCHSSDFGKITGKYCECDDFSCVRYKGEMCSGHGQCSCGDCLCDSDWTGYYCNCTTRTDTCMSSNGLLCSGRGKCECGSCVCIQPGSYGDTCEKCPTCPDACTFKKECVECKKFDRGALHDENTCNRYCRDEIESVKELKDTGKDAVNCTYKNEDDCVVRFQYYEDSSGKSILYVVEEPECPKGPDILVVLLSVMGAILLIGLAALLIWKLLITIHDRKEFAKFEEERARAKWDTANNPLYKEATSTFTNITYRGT
DNAJA3 (human), sequence (Q96EY1 other isoform, or with tags, fused parts or gaps limits assumed): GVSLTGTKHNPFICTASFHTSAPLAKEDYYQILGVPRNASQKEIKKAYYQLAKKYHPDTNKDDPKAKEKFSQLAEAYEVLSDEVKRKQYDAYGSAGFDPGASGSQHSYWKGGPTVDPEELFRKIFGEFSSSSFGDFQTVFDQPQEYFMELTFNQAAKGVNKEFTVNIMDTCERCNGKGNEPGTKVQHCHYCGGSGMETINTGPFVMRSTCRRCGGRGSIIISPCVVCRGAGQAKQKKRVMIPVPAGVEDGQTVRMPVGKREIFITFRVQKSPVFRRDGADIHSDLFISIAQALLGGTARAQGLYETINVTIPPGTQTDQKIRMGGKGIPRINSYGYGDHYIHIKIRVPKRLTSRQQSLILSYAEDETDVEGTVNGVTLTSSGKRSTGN
TXN, sequence (P10599 2-105 limits assumed): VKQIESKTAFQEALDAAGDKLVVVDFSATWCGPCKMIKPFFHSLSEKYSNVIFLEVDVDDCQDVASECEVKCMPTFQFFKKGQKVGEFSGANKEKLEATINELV
CDSN, sequence (Q15517 33-529 limits assumed): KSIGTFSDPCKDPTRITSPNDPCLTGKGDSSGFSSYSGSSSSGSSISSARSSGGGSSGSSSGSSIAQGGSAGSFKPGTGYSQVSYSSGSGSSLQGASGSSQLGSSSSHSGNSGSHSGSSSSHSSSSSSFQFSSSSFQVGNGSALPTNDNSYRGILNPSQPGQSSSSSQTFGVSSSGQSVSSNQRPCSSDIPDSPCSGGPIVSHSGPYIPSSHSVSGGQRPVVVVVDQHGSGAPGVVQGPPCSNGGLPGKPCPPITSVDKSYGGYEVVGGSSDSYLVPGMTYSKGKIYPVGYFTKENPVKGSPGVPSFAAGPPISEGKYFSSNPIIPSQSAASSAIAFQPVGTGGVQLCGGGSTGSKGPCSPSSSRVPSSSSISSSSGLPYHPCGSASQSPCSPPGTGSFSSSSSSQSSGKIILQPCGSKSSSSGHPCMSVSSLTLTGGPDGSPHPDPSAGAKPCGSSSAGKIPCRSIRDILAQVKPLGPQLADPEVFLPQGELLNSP
SRSF1, sequence (Q07955 2-248 limits assumed): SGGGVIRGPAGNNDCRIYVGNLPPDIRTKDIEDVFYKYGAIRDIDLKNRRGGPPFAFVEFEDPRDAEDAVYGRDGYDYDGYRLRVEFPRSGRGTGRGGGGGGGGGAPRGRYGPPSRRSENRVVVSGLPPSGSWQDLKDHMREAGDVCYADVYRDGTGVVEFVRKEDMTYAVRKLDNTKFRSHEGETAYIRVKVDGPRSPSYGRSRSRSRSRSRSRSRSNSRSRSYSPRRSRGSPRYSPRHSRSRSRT
DEFA3, sequence (P59666 65-94 limits assumed): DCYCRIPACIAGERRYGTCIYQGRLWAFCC
ARG1, sequence (P05089 whole entry): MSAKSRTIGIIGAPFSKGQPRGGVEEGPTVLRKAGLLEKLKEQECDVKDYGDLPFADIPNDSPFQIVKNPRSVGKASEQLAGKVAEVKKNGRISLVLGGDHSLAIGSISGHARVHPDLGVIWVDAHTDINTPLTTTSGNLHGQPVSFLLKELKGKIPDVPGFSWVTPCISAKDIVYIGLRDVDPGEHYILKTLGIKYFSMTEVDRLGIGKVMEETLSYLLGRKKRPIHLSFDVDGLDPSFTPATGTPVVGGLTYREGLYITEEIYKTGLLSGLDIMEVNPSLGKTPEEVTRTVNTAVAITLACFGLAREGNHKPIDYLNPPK
FBXO6 (human), sequence (Q9NRD1 whole entry): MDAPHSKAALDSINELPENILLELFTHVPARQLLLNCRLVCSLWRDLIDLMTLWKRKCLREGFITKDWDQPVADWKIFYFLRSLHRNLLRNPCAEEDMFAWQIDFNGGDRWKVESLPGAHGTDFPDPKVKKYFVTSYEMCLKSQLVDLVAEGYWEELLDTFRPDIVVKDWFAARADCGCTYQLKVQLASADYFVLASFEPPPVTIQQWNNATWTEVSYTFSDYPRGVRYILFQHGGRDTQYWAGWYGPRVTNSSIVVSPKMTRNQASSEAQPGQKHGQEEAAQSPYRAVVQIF
SRSF3, sequence (P84103 whole entry): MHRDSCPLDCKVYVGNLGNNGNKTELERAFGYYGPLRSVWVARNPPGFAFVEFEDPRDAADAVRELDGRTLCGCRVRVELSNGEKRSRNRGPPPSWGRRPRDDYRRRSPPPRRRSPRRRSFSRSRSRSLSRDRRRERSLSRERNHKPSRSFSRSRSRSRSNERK
TAGLN, sequence (Q01995 2-201 limits assumed): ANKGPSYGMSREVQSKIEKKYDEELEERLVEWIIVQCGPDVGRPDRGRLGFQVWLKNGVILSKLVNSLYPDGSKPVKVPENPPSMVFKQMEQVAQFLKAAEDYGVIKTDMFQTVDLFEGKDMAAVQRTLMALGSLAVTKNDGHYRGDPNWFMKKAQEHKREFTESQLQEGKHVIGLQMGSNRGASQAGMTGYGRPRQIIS
HIST1H1E, sequence (P10412 2-219 limits assumed): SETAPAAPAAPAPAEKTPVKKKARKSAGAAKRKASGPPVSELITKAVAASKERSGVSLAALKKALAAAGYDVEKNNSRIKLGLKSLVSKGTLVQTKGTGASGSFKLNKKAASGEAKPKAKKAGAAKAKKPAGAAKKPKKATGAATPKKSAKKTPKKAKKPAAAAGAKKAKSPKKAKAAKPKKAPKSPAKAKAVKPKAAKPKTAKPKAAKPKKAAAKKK
PSMA7, sequence (O14818 whole entry): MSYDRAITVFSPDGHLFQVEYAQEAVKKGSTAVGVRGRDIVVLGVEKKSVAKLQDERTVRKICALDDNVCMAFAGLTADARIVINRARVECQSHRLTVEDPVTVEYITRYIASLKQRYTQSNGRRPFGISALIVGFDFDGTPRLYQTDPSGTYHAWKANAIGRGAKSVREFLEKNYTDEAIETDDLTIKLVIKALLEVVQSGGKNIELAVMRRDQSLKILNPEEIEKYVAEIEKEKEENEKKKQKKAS
NCCRP1, sequence (Q6ZVX7 whole entry): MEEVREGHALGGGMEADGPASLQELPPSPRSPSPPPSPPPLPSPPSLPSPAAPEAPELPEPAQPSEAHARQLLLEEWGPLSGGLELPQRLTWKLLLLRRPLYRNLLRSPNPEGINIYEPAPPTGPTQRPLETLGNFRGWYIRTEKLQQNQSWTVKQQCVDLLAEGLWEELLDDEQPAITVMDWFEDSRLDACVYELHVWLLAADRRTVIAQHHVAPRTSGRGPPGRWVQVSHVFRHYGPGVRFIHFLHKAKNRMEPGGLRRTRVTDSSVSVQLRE
HSPB1, sequence (P04792 whole entry): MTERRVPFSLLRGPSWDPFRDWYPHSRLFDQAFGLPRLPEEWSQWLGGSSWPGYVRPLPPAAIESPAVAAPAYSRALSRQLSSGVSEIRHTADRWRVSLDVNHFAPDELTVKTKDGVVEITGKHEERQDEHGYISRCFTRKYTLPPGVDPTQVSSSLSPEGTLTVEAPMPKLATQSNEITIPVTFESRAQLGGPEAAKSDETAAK

Q: Which results are given for “IgG control (Millipore Sigma 12-371) (antibody)”?
A: co-IP mass spectrometry count (PSMB4 (human)): 0; co-IP mass spectrometry count (LARP4 (human)): 0; co-IP mass spectrometry count (DNAJA3 (human)): 0; co-IP mass spectrometry count (FBXO6 (human)): 0; co-IP mass spectrometry count (RPS8): 7; co-IP mass spectrometry count (EIF4G1): 2; co-IP mass spectrometry count (PSMA7): 0; co-IP mass spectrometry count (RPS23): 6; co-IP mass spectrometry count (RPS16): 10; co-IP mass spectrometry count (CFL1): 3; co-IP mass spectrometry count (TAGLN): 0; co-IP mass spectrometry count (TMEM59): 0; co-IP mass spectrometry count (TXN): 3; co-IP mass spectrometry count (CDSN): 0; co-IP mass spectrometry count (HNRNPU): 2; co-IP mass spectrometry count (RPL37A): 4; co-IP mass spectrometry count (DDX20): 0; co-IP mass spectrometry count (MTCH2): 0; co-IP mass spectrometry count (ITGB3): 0; co-IP mass spectrometry count (NCCRP1): 4; co-IP mass spectrometry count (SRSF1): 5; co-IP mass spectrometry count (POF1B): 0; co-IP mass spectrometry count (ARG1): 4; co-IP mass spectrometry count (LIMA1): 3; co-IP mass spectrometry count (RPL27A): 3; co-IP mass spectrometry count (SRSF3): 4; co-IP mass spectrometry count (HSPB1): 4; co-IP mass spectrometry count (RPL22): 0; co-IP mass spectrometry count (RPL19): 2; co-IP mass spectrometry count (RPS19): 5; co-IP mass spectrometry count (RPS2): 10; co-IP mass spectrometry count (RPL5): 0; co-IP mass spectrometry count (PBXIP1): 0; co-IP mass spectrometry count (RPL3): 3; co-IP mass spectrometry count (TNKS1BP1): 4; co-IP mass spectrometry count (DNAJA2): 0; co-IP mass spectrometry count (RPS13): 2; co-IP mass spectrometry count (DEFA3): 3; co-IP mass spectrometry count (RPL35): 2; co-IP mass spectrometry count (HIST1H1E): 2; co-IP mass spectrometry count (RPS18): 11
